Reference: the supplement of paper PMC9112550, “Optimization of the antimicrobial peptide Bac7 by deep mutational scanning” (BMC Biology, 2022)

tested on: Escherichia coli TOP10; experiment: shrunken log2 fold change of peptide-encoding DNA abundance (4.5 h post-induction vs induction); higher = less antimicrobial activity (less host growth inhibition); settings: time post-induction: 4.5 h; library: site-saturation at positions 5, 18, 19, 20
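Also: peptides expressed intracellularly from a pBAD plasmid library in pooled LB shake-flask culture, induced with 0.3% L-arabinose, DNA abundance read by NGS, three biological replicates, DESeq2 with apeglm shrinkage.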

| Sequence | shrunken log2 fold change |
| --- | --- |
| RRIRCRPPRLPRPRPRPVKAPRP | 0.0593 |
| RRIRKRPPRLPRPRPRPRCHPRP | 0.237 |
| RRIRSRPPRLPRPRPRPREIPRP | 0.426 |
| RRIRLRPPRLPRPRPRPFIAPRP | -0.496 |
| RRIRYRPPRLPRPRPRPWWCPRP | -0.139 |
| RRIRGRPPRLPRPRPRPGNTPRP | 0.171 |
| RRIRDRPPRLPRPRPRPNPHPRP | -0.247 |
| RRIRVRPPRLPRPRPRPTMGPRP | 0.04 |
| RRIRRRPPRLPRPRPRPADRPRP | 0.00311 |
| RRIRVRPPRLPRPRPRPSHRPRP | -0.615 |
| RRIRCRPPRLPRPRPRPHGFPRP | -0.0942 |
| RRIRTRPPRLPRPRPRPYWCPRP | -0.53 |
| RRIRNRPPRLPRPRPRPLFVPRP | -0.495 |
| RRIRYRPPRLPRPRPRPAFFPRP | -0.405 |
| RRIRMRPPRLPRPRPRPVSTPRP | 1.96 |
| RRIRGRPPRLPRPRPRPGSKPRP | 0.0737 |
| RRIRHRPPRLPRPRPRPALNPRP | 0.0444 |
| RRIRARPPRLPRPRPRPDCAPRP | 0.826 |
| RRIRPRPPRLPRPRPRPEEGPRP | -0.0155 |
| RRIRTRPPRLPRPRPRPSGAPRP | 0.251 |
| RRIRARPPRLPRPRPRPTWFPRP | 0.225 |
| RRIRDRPPRLPRPRPRPQQCPRP | -0.00965 |
| RRIRERPPRLPRPRPRPIEFPRP | 0.101 |
| RRIRTRPPRLPRPRPRPKVPPRP | -0.0154 |
| RRIRIRPPRLPRPRPRPKLRPRP | 0.349 |

| Sequence | shrunken log2 fold change |
| --- | --- |
| RRIRFRPPRLPRPRPRPACAPRP | 0.291 |
| RRIRGRPPRLPRPRPRPWDHPRP | 0.0661 |
| RRIRARPPRLPRPRPRPRFIPRP | -0.259 |
| RRIRSRPPRLPRPRPRPQTYPRP | -0.16 |
| RRIRYRPPRLPRPRPRPMLKPRP | -0.374 |
| RRIRMRPPRLPRPRPRPYFNPRP | -0.822 |
| RRIRSRPPRLPRPRPRPPPRPRP | 1.09 |
| RRIRIRPPRLPRPRPRPWCYPRP | -0.406 |
| RRIRGRPPRLPRPRPRPSTAPRP | 0.926 |
| RRIRGRPPRLPRPRPRPSDDPRP | 0.108 |
| RRIRYRPPRLPRPRPRPPYYPRP | -0.214 |
| RRIRIRPPRLPRPRPRPNLNPRP | -0.237 |
| RRIRRRPPRLPRPRPRPHKRPRP | 0.124 |
| RRIRVRPPRLPRPRPRPSRQPRP | -0.0237 |
| RRIRNRPPRLPRPRPRPNDGPRP | -0.00674 |
| RRIRCRPPRLPRPRPRPFQCPRP | -0.296 |
| RRIRVRPPRLPRPRPRPASCPRP | -0.0873 |
| RRIRCRPPRLPRPRPRPFKYPRP | -0.246 |
| RRIRFRPPRLPRPRPRPIDNPRP | 2.36 |
| RRIRFRPPRLPRPRPRPIMMPRP | -0.529 |
| RRIRQRPPRLPRPRPRPCYLPRP | -0.195 |
| RRIRNRPPRLPRPRPRPWGAPRP | 0.0894 |
| RRIRGRPPRLPRPRPRPKQTPRP | 0.175 |
| RRIRHRPPRLPRPRPRPVGQPRP | 0.0139 |
| RRIRHRPPRLPRPRPRPGLSPRP | -0.0763 |

| Sequence | shrunken log2 fold change |
| --- | --- |
| RRIRWRPPRLPRPRPRPNYQPRP | -0.365 |
| RRIRQRPPRLPRPRPRPKSIPRP | -0.695 |
| RRIRPRPPRLPRPRPRPSRNPRP | 0.0326 |
| RRIRNRPPRLPRPRPRPMVWPRP | -0.03 |
| RRIRSRPPRLPRPRPRPIYNPRP | -0.785 |
| RRIRARPPRLPRPRPRPVFSPRP | -0.0817 |
| RRIRVRPPRLPRPRPRPGTVPRP | 0.421 |
| RRIRLRPPRLPRPRPRPWTTPRP | -0.206 |
| RRIRLRPPRLPRPRPRPNQDPRP | -0.0883 |
| RRIRNRPPRLPRPRPRPWMEPRP | -0.00208 |
| RRIRARPPRLPRPRPRPTSQPRP | 0.211 |
| RRIRGRPPRLPRPRPRPYGRPRP | 0.047 |
| RRIRERPPRLPRPRPRPCHLPRP | -0.176 |
| RRIRRRPPRLPRPRPRPEKFPRP | 0.171 |
| RRIRERPPRLPRPRPRPQNYPRP | -0.409 |
| RRIRLRPPRLPRPRPRPRRLPRP | 0.18 |
| RRIRARPPRLPRPRPRPIPSPRP | -0.156 |
| RRIRARPPRLPRPRPRPMGCPRP | 0.495 |
| RRIRKRPPRLPRPRPRPEYYPRP | -0.053 |
| RRIRQRPPRLPRPRPRPWSEPRP | -0.266 |
| RRIRNRPPRLPRPRPRPPINPRP | -0.186 |
| RRIRHRPPRLPRPRPRPRLHPRP | 0.0986 |
| RRIRSRPPRLPRPRPRPFDFPRP | -0.241 |
| RRIRNRPPRLPRPRPRPPRFPRP | 0.441 |
| RRIRLRPPRLPRPRPRPCVLPRP | -0.44 |

| Sequence | shrunken log2 fold change |
| --- | --- |
| RRIRQRPPRLPRPRPRPYTDPRP | -0.209 |
| RRIRWRPPRLPRPRPRPQFLPRP | -0.0223 |
| RRIRGRPPRLPRPRPRPHVTPRP | 0.00976 |
| RRIRKRPPRLPRPRPRPATKPRP | 0.253 |
| RRIRFRPPRLPRPRPRPHQAPRP | -0.0233 |
| RRIRTRPPRLPRPRPRPDEPPRP | -0.105 |
| RRIRNRPPRLPRPRPRPSHMPRP | -0.883 |
| RRIRDRPPRLPRPRPRPYFRPRP | -0.318 |
| RRIRGRPPRLPRPRPRPPAAPRP | 1.63 |
| RRIRLRPPRLPRPRPRPVLSPRP | -0.0937 |
| RRIRERPPRLPRPRPRPIRKPRP | -0.108 |
| RRIRWRPPRLPRPRPRPQKFPRP | -0.0956 |
| RRIRGRPPRLPRPRPRPHDGPRP | 0.0288 |
| RRIRARPPRLPRPRPRPHNVPRP | -0.0333 |
| RRIRNRPPRLPRPRPRPQHPPRP | -0.325 |
| RRIRLRPPRLPRPRPRPRRSPRP | -0.169 |
| RRIRDRPPRLPRPRPRPHFTPRP | -0.307 |
| RRIRFRPPRLPRPRPRPDWVPRP | 0.0788 |
| RRIRRRPPRLPRPRPRPMFGPRP | -0.0512 |
| RRIRRRPPRLPRPRPRPNVWPRP | 1.99 |
| RRIRWRPPRLPRPRPRPSSRPRP | 0.188 |
| RRIRKRPPRLPRPRPRPANNPRP | 0.0823 |
| RRIRPRPPRLPRPRPRPEWNPRP | 0.07 |
| RRIRMRPPRLPRPRPRPMYEPRP | 0.221 |
| RRIRTRPPRLPRPRPRPGWDPRP | 0.129 |

| Sequence | shrunken log2 fold change |
| --- | --- |
| RRIRYRPPRLPRPRPRPNNKPRP | -1.17 |
| RRIRGRPPRLPRPRPRPLWPPRP | 0.836 |
| RRIRGRPPRLPRPRPRPAHMPRP | 0.145 |
| RRIRTRPPRLPRPRPRPGRHPRP | 0.0235 |
| RRIRPRPPRLPRPRPRPRWEPRP | 0.444 |
| RRIRERPPRLPRPRPRPAFLPRP | -0.289 |
| RRIRHRPPRLPRPRPRPKPSPRP | 0.411 |
| RRIRDRPPRLPRPRPRPDLFPRP | 0.0296 |
| RRIRIRPPRLPRPRPRPTHYPRP | -0.392 |
| RRIRWRPPRLPRPRPRPWHEPRP | 0.356 |
| RRIRCRPPRLPRPRPRPFVWPRP | 0.0706 |
| RRIRLRPPRLPRPRPRPYRYPRP | -0.254 |
| RRIRVRPPRLPRPRPRPFNNPRP | -0.147 |
| RRIRVRPPRLPRPRPRPFQKPRP | 0.0406 |
| RRIRSRPPRLPRPRPRPSDDPRP | -0.274 |
| RRIRWRPPRLPRPRPRPTAYPRP | 0.0204 |
| RRIRYRPPRLPRPRPRPDFTPRP | -0.0212 |
| RRIRVRPPRLPRPRPRPVWAPRP | 0.394 |
| RRIRTRPPRLPRPRPRPFQPPRP | 0.0737 |
| RRIRYRPPRLPRPRPRPRLAPRP | 0.299 |
| RRIRMRPPRLPRPRPRPCMDPRP | 0.104 |
| RRIRKRPPRLPRPRPRPQANPRP | 0.066 |
| RRIRLRPPRLPRPRPRPSGCPRP | 0.345 |
| RRIRNRPPRLPRPRPRPMSTPRP | -0.0292 |
| RRIRHRPPRLPRPRPRPSHVPRP | -0.166 |

| Sequence | shrunken log2 fold change |
| --- | --- |
| RRIRVRPPRLPRPRPRPGDWPRP | 0.432 |
| RRIRLRPPRLPRPRPRPPWVPRP | 0.344 |
| RRIRARPPRLPRPRPRPIVAPRP | 0.371 |
| RRIRARPPRLPRPRPRPVMMPRP | 0.0914 |
| RRIRFRPPRLPRPRPRPFEDPRP | -0.0916 |
| RRIRPRPPRLPRPRPRPGFIPRP | -0.221 |
| RRIRVRPPRLPRPRPRPSMWPRP | -0.104 |
| RRIRGRPPRLPRPRPRPGNFPRP | -0.00767 |
| RRIRLRPPRLPRPRPRPMAVPRP | -0.0225 |
| RRIRGRPPRLPRPRPRPEKNPRP | 0.921 |
| RRIRKRPPRLPRPRPRPKKPPRP | 0.0909 |
| RRIRERPPRLPRPRPRPPFVPRP | 0.072 |
| RRIRQRPPRLPRPRPRPKVEPRP | -0.00957 |
| RRIRHRPPRLPRPRPRPFCMPRP | -1.09 |
| RRIRYRPPRLPRPRPRPKFIPRP | -1.39 |
| RRIRVRPPRLPRPRPRPSIGPRP | -0.197 |
| RRIRKRPPRLPRPRPRPMCNPRP | 0.26 |
| RRIRCRPPRLPRPRPRPDADPRP | 0.472 |
| RRIRTRPPRLPRPRPRPMNSPRP | -0.191 |
| RRIRCRPPRLPRPRPRPNGIPRP | -0.117 |
| RRIRIRPPRLPRPRPRPLGQPRP | -0.00501 |
| RRIRYRPPRLPRPRPRPKYTPRP | -0.415 |
| RRIRFRPPRLPRPRPRPGSCPRP | -0.0149 |
| RRIRKRPPRLPRPRPRPKKYPRP | -0.149 |
| RRIRMRPPRLPRPRPRPRAGPRP | 1.08 |
